Data reported in article PMC6018003, “Quantifying the Interaction between Copper-Zinc Superoxide Dismutase (Sod1) and its Copper Chaperone (Ccs1)” (Journal of proteomics & bioinformatics, 2018).

Target: T1, H46R/H48Q/C146S Sod1 labeled with Alexa-546 at C57 (yeast, Alexa-546 C5-maleimide on C57)
T1 construct: two residue (Gly-His) extension left on the N-terminus after TEV cleavage; The vector with His tag and TEV site is stated for Ccs1; the purification with tag removal is told of both proteins; also called immature Sod1; E, E-Sod1^SH; source: E. coli BL21 (DE3) pLysS, purified (HisTrap HP Ni2+ column, TEV cleavage; Superdex 200 after labeling); not shown: His8, N-terminal, cleaved
T1 sequence (P00445 2-154 with H46R H48Q C146S, looked up): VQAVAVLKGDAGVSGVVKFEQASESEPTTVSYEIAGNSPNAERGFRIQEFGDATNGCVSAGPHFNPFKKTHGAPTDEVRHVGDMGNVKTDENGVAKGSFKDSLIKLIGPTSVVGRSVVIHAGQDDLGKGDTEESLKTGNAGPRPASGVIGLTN
Test: other fluorescence titration; microplate, quenching of Alexa-546-labeled Sod1 on titration with Ccs1; Sod1 metal deficient and disulfide reduced (E, E-Sod1^SH); 20 mM Tris pH 7.5, 150 mM NaCl, 1 mM TCEP, 0.01% octyl glucoside and CHAPS
Details: both partners purified

B1: Ccs1 lacking D3 (domain or fragment)
chain: MTTNDTYEATYAIPMHCENCVNDIKACLKNVPGINSLNFDIEQQIMSVESSVAPSTIINTLRNCGKDAIIRGAGKPNSSAVAILETFQKYTIDQKKDTAVRGLARIVQVGENKTLFDITVNGVPEAGNYHASIHEKGDVSKGVESTGKVWHKFDEPIECFNESDLGKNLYSGKTFLSAPLPTWQLIGRSFVISKSLNHPENEPSSVKDYSFLGVIARSAGVW
Work on B1 yielded a Kd of 552 ± 105 nM.

B2: Ccs1 lacking D1 (domain or fragment)
chain: IRGAGKPNSSAVAILETFQKYTIDQKKDTAVRGLARIVQVGENKTLFDITVNGVPEAGNYHASIHEKGDVSKGVESTGKVWHKFDEPIECFNESDLGKNLYSGKTFLSAPLPTWQLIGRSFVISKSLNHPENEPSSVKDYSFLGVIARSAGVWENNKQVCACTGKTVWEERKDALANNIK
In the case of B2, the Kd is reported as 217 ± 38 nM.
